Here are results for 116 sequences from the supplement of paper PMC10724198.

± gives the standard deviation of the averaged measurements.
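Also: PSI is a weighted mean of sequencing reads over stability bins, variants kept only with over 10 reads, mCherry proximal and sfGFP distal, peptide attached via GGGS linker.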

The test system of the series is Saccharomyces cerevisiae. As to the kind of experiment: protein stability index of tFT-peptide fusion (C-terminal peptide) (PSI (0-1 scale)); higher = more stable (slower turnover). Particulars: genetic background: wild type; temperature: 30 C.
Consider LLGVRLGVLSFA, for which the protein stability index stood at 0.58 ± 0.01. With LLHEAFSSPLSS the figure was 0.7164 ± 0.0068; with LLHHSSVSFFSL, 0.71 ± 0.016; with LLHWGRWRRGRR, 0.722 ± 0.046. With LLIYIPLFEWAR the figure was 0.526 ± 0.028. Under LLKQDNSVLSEL stands 0.63 ± 0.07. Sequence LLLARWASFIMS came in with a protein stability index of 0.685 ± 0.01. Under LLLASSHAPYLH stands 0.77 ± 0.021. Under LLLLDLWLPSVL stands 0.76 ± 0.059. Under LLLLNSFFISPP stands 0.742 ± 0.027; under LLLPSTPSPLLY, 0.609 ± 0.014; under LLPFCPPCLRSL, 0.648 ± 0.018. LLPFDTYPPTSP registered a protein stability index of 0.695 ± 0.036. Under LLPLAPSPPPPH stands 0.71 ± 0.042; under LLPPPPFSAPPS, 0.671 ± 0.012; under LLPPSHRASPRQ, 0.694 ± 0.027. Under LLPQSPRPLVHS stands 0.774 ± 0.065; under LLPSLLRPQPPA, 0.699 ± 0.034; under LLPSPLSLTFPL, 0.616 ± 0.013. LLPVFFISYPSS yielded a protein stability index of 0.6545 ± 0.0053. The sequence LLQLLGGFVFSA returned a protein stability index of 0.67 ± 0.018. With LLRLVFHLETSS the figure was 0.547 ± 0.081.

LLRVLVTFDAFD came in with a protein stability index of 0.576 ± 0.021.

With LLRWCFDLWWVL, the protein stability index is 0.532 ± 0.051. Under LLSFLLFFVPGS stands 0.576 ± 0.0013; under LLSPPPHPPPLI, 0.6648 ± 0.0038.

As to LLSPQPPSSPLP, the protein stability index worked out at 0.69 ± 0.015. LLSSPYPPDTFT had a protein stability index of 0.6427 ± 0.0012. With LLTGPYRCIPLV the figure was 0.608 ± 0.039.

For the sequence LLTSRLSTPFLI, the protein stability index turned out to be 0.53 ± 0.012. Sequence LLVGVGGAGGVG yielded a protein stability index of 0.603 ± 0.012. Under LLVLPLVFSCSS stands 0.53 ± 0.0078; under LLVWPLDQTFRL, 0.698 ± 0.019; under LLWVSAPHRYVR, 0.642 ± 0.036. With LLYALLLSLFRY the figure was 0.595 ± 0.02; with LMSGFFCGLLYA, 0.6181 ± 0.0029; with LMYGSVGVRGGE, 0.76 ± 0.064. Regarding LNCRCMLSRHCW, the protein stability index worked out at 0.666 ± 0.032. LNSCLIVDEPDI came in with a protein stability index of 0.8026 ± 0.0048. With LNTVNGRSSTAK the figure was 0.665 ± 0.019; with LPACPHPPPLPD, 0.6594 ± 0.0047; with LPAHLLPPSSPS, 0.741 ± 0.03. As for LPAHPPAAPGAP, the protein stability index is 0.692 ± 0.032. With LPAPPPPPPSPL the figure was 0.71 ± 0.074; with LPAPSPAVPSPP, 0.668 ± 0.033; with LPAPSPSPHPPA, 0.689 ± 0.026. In turn, LPCGRGQLVGSQ had a protein stability index of 0.677 ± 0.032. In the case of LPCTTPLLFTPV, the protein stability index turned out to be 0.706 ± 0.21. Under LPDLSPIRRCPL stands 0.694 ± 0.04.

In the case of LPERASQARGRP, the protein stability index is 0.694 ± 0.17. With LPFRLARLSQEG the figure was 0.849 ± 0.016. In turn, LPGGRRPSQCPA had a protein stability index of 0.645 ± 0.01. LPILPQHQPTTD had a protein stability index of 0.674 ± 0.014. With LPKARPRTNPPP, the protein stability index came out at 0.712 ± 0.15. With LPKSRIGPILNG, the protein stability index turned out to be 0.743 ± 0.12. For the sequence LPLALSAPPAQP, the protein stability index worked out at 0.683 ± 0.042.

The sequence LPLAMTTIGISL registered a protein stability index of 0.675 ± 0.011. LPLCSPPAPPSS returned a protein stability index of 0.666 ± 0.026. With LPLIRQLPNPPP the figure was 0.648 ± 0.031; with LPLLALPLALHP, 0.653 ± 0.0077.

In turn, LPLMVPIPLLLP returned a protein stability index of 0.648 ± 0.024. Under LPLPIPPFPCPP stands 0.686 ± 0.017; under LPLPSTYHHISK, 0.68 ± 0.063. In turn, LPLWQHPTKPVH came in with a protein stability index of 0.64238 ± 8.1e-05. With LPLYYPPGTREL the figure was 0.708 ± 0.027; with LPPAIPSTPPTP, 0.756 ± 0.0087. On to LPPASHLPYLVL, for which the protein stability index turned out to be 0.717 ± 0.019. In turn, LPPLAPPPPPLP returned a protein stability index of 0.688 ± 0.026. Consider LPPLCLPPPAHP, for which the protein stability index amounted to 0.733 ± 0.026. With LPPLPPPPPLPL the figure was 0.688 ± 0.11; with LPPLSLSPPLPP, 0.689 ± 0.049. With LPPLTSPSIVRG, the protein stability index worked out at 0.749 ± 0.04. LPPPFPSPPRPP showed a protein stability index of 0.617 ± 0.14. Under LPPPLPPRPSPP stands 0.728 ± 0.089; under LPPPPAPSSAPL, 0.735 ± 0.14. LPPPPLPPPVFP: the protein stability index amounted to 0.74 ± 0.018. Under LPPPPPHRTGDC stands 0.5859 ± 0.0028. With LPPPPPLPSSPL the figure was 0.685 ± 0.018; with LPPPPRPPPPPP, 0.663 ± 0.021. In the case of LPPPPSASPPRP, the protein stability index is 0.794 ± 0.06. Sequence LPPPPTAPPPSR returned a protein stability index of 0.719 ± 0.058. Under LPPPRPASPGSP stands 0.642 ± 0.051. Under LPPPRPGLPFTF stands 0.704 ± 0.057.

Turning to LPPPRSPPPLSA, the protein stability index came to 0.622 ± 0.057. On to LPPPSLPGPSAS, for which the protein stability index amounted to 0.786 ± 0.059. The sequence LPPPYPRPPPFR had a protein stability index of 0.68 ± 0.005. With LPPRPLPPPSRT the figure was 0.7 ± 0.076; with LPPRPPTHSPPP, 0.722 ± 0.011.

The sequence LPPRTHSPLSSP had a protein stability index of 0.636 ± 0.11. Under LPPSPLMTRTCA stands 0.6343 ± 0.0041; under LPPSSLTLSPSS, 0.675 ± 0.045; under LPPSSSPCPLPS, 0.7304 ± 0.0053.

Take LPRLPPPPHPCP: the protein stability index amounted to 0.741 ± 0.013. Under LPRLTPARPRHH stands 0.7 ± 0.1. Sequence LPRPPAPPMRYM returned a protein stability index of 0.70928 ± 9.3e-05. Under LPRSPPCCHVND stands 0.628 ± 0.02; under LPRVSMTPTRVG, 0.6535 ± 0.0029. Under LPSHRSPITSFL stands 0.668 ± 0.14; under LPSLHPPPSPQP, 0.777 ± 0.08; under LPSPHPPPPPLS, 0.673 ± 0.13.

For LPSSFLPVPAPP, the protein stability index is 0.6976 ± 0.00082. With LPTLPPPTPYAL the figure was 0.652 ± 0.044; with LPTPVRRPPSPP, 0.71 ± 0.028. The sequence LPTSPMSCHTLT had a protein stability index of 0.76 ± 0.088. Turning to LPVSISIGNVGR, the protein stability index worked out at 0.627 ± 0.025. With LPWLTASRLVMR, the protein stability index was determined as 0.714 ± 0.043. In turn, LQATFRRHLNLV returned a protein stability index of 0.655 ± 0.032. In turn, LQFGHGDFRSTV showed a protein stability index of 0.713 ± 0.093.

LQRAPKLLPSSS returned a protein stability index of 0.683 ± 0.03. With LQRHSSQQTTSA the figure was 0.658 ± 0.025; with LQVTLALSAALP, 0.802 ± 0.079; with LRAVRDSLMSQC, 0.681 ± 0.033. LRCNAQSMICLT: the protein stability index was 0.633 ± 0.081. With LRCPLMYDIFYN the figure was 0.726 ± 0.074. Under LRCRLFIWDGVK stands 0.809 ± 0.038; under LRDYLLWRECTL, 0.692 ± 0.033.
